# Assay: yeast display, Sf9 membrane polyspecificity reagent, FACS + sequencing; frameworks hold sequencing errors
# In short: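 Nanobodies came from a synthetic yeast display library in Saccharomyces cerevisiae BJ5465, induced with galactose for 36–48 hours and stained for 1 hour at 4 °C with 10% biotinylated, detergent-solubilized Sf9 membrane reagent. Cells were enriched on streptavidin microbeads and then FACS-sorted, with low and high (top ~1%) gates set on anti-HA fluorescence for expression and streptavidin fluorescence for reagent binding. Each polyreactivity label reflects the gate a clone came from. Genes were amplified by colony PCR, sequenced by MiSeq 2 × 250 and filtered by CDR length.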
row,Sequence,polyreactivity (PSR sort gate)
1,QVQLVESGGGLVQAGGSLRLSCAASGRTIDYNGMGSYRQAPGKERELVAVISSSGGSTFYADSVKGRFTISRDNAKNTVYLQMNSLKPVDTAVYYCAADFIVAYTLHGSYDYWGQGTQVTVSS,low polyreactivity
2,QVQLVESGGGLVQAGGSLRLSCAASGRTIGGNAMGRYRQAPGKERELVAAISWSGGRTYYADSVKGRFTISRDNAKNTVYLQMNSLKPEDTAVYYCNKVGYGFHGDYDYWGQGTQVTVSS,high polyreactivity
3,QVQLVESGGGLVQAGGSLRLSCAASGRTIGIYAMGLYRQAPGKERELVAAITWSGDSTYYADSVKGRFTISRDNAKNTVYLQMNSLKPEDTAVYYCAAYYLYRYQTMGYWGQGTLVTVSS,low polyreactivity
4,QVQLVESGGGLVQAGGSLRLSCAASGRTIGLYGMGWYRQAPGKEREFDAAITRRGGSTYYADSVKGRFTISRDHAKNTVYLQMNSLKPEDTADYYCAAGYSSRYRGGLDYWGQGTQVTVSS,high polyreactivity
5,QVQLVESGGGLVQAGGSLRLSCAASGRTIGVYAMGWYRQAPGKERELVAAISWSGGTTYYADSVKGRFTISRDNAKNTVYLQMNSLKPEDTAVYYCDADSYTEVDYWGQGTQVTVSS,low polyreactivity
6,QVQLVESGGGLVQAGGSLRLSCAASGRTIGYNAMGWYRQAPGKERELVAAITRSAGITYYADSVKGRFTISRDNAKNTVYLQLNSLKPEDTAVYYCNKRVVYRSSLFDYWGQGTQVTVSS,low polyreactivity
7,QVQLVESGGGLVQAGGSLRLSCAASGRTINGNTMGWYRQAPGKERELVAVIDWSGGSTYYADSVKGRFTISRDTAKNTVYLQMNSLKPEDTAVYFCATVSGYAYYYWGQGTQVTVSS,low polyreactivity
8,QVQLVESGGGLVQAGGSLRLSCAASGRTIPFYAMGWYRQAPGKERELVAAISSSAGRTYYADSVKGRFSISRDNAKNTVYLQLNSLKPEDTAVYYCAARLYCRYRYDYWGQGTQVTVSS,low polyreactivity
9,QVQLVESGGGLVQAGGSLRLSCAASGRTIPHNAMGWYRQAPGKERQLVATITAGSGSTYYADSVKGRFTISRDNAKNTVSLQLNSLKPEDTAVYYCNAKWTLYQSDYWYYIYDYWGQGTQVTVSS,low polyreactivity
10,QVQLVESGGGLVQAGGSLRLSCAASGRTIQTYAMGWYRQAPRKERELVAAITSSGGSTYYADSVKGRFTISRDNAKNTVYLQMNSLIPEDSAVYYWSAYRRIRVGVPVRTYYYWGQGTQVTVSS,high polyreactivity
11,QVQLVESGGGLVQAGGSLRLSCAASGRTIQYNAMGWYRQAPGKERQLVAAISSSGGSTYYADSVKGRFTISRDNAKNTVYLQMNSLKPEDTAVYYCNAYSQSWNFYGDGDYWGQGTQVTVSS,low polyreactivity
12,QVQLVESGGGLVQAGGSLRLSCAASGRTIRAYTMGWYRQAPGNERELVAAISTPGGSTYYADSVKGRFTISRDNAKNTVYLQLNSLKPEDTAVYYCAADYGGPITGYEYWGQGTQVTVSS,low polyreactivity
13,QVQLVESGGGLVQAGGSLRLSCAASGRTIRVYAMGWYRQAPGKERELVARINFRGGSTRYADSVKGRFTISRDNAKNTVYLQMNSLKPEDTAVYYCAARPSSFYYSNGFDYWGQGTQVTVSS,high polyreactivity
14,QVQLVESGGGLVQAGGSLRLSCAASGRTIRYNALGWYREARGKERELVASIRRGGSTNYADSVKGRCTISRDNAKNPVYLHMNSLKPEDTAVSYCAAAGGGVRKVWGGSRYGYWGQGTQVTVSS,high polyreactivity
15,QVQLVESGGGLVQAGGSLRLSCAASGRTIRYYAMGWYRQAPGKERELVAAITSGGSTYYADSVKGRFTISRDNAKNTVYLQMNSLKPEDTAVYYCAAARYEPFIYDYGYWGQGTQVTVSS,low polyreactivity
16,QVQLVESGGGLVQAGGSLRLSCAASGRTIRYYTMGWYRQAPGKERELVATIRRGRTTYYADSVKGRFTISRDNEKNTVYLQMYSLKPEDTAVYYCAADFPSAEVDYWGQGTQVTVSS,low polyreactivity
17,QVQLVESGGGLVQAGGSLRLSCAASGRTIVYNAMGWYRQAPGKERELVAAITSRGGSTHYADSVKGRFTISRDNAKNTVYLQMNSLKPEDTAVYYCAADFLSPAYRPSWYRFDYWGQGTQVTVSS,low polyreactivity
18,QVQLVESGGGLVQAGGSLRLSCAASGRTIWWYAMGWYRQAPGKERELVADITWIGGSTYYADSVKGRFTISRDNAKNTVYLQMNSLKPEDTAVYYCATDKDDVSDLGKDYAYFEYDYWGQGTQVTVSS,low polyreactivity
19,QVQLVESGGGLVQAGGSLRLSCAASGRTIWYNAMGWYRQAPGKERELVAVISSGAITYYADSVKGRFTFSRDNGKNTVYLQMNSLKPEDTAFYYCAARSYLSLIDYWGQGTQVNVSS,high polyreactivity
20,QVQLVESGGGLVQAGGSLRLSCAASGRTIYQNAMGWYRQAPGKEREFVAAITGGTGSTHYADSVKGRFTISRDNAKITVYLQMNSLKPEDSAVYYCATRYLFGFSRYDYWGQGTQVTVSS,low polyreactivity
21,QVQLVESGGGLVQAGGSLRLSCAASGRTIYRYGMGWYRQAPGKERELVADITWRGDSTYYADSVKGRFTISRDNAKNTVYLQMNCLKPEDTAVYYCATRPRGYRWGKLYDYWGQGTQVTVSS,high polyreactivity
22,QVQLVESGGGLVQAGGSLRLSCAASGRTIYTYAMGWYRQAPGKERELVAAITKRGGSTYYADSVKGRFTISRDNAQNTVYLQMNSLKPEDTAVYYCNKELATARGQSLYRTYSGYGYWGQGTQVTVSS,high polyreactivity

row,Sequence,polyreactivity (PSR sort gate)
1,QVQLVESGGGLVQAGGSLRLSCAASGRTIYYYAMGLYRQAPGKERELVAAISSSGSTTYYADSVKGRFTISRDNAKNTVYLQMNSLKPEDTAVYYCAASYVYRVDDDYWGLGTQVTVSS,low polyreactivity
2,QVQLVESGGGLVQAGGSLRLSCAASGRTIYYYAMGWYRQAPGKEREFVAAISWHGGSTYYADSVKGRFTISRDNAKNNVYLQMNSLKPEDTAVYYCAADIYLRGFHYDYWGQGTQVTVSS,low polyreactivity
3,QVQLVESGGGLVQAGGSLRLSCAASGRTIYYYAMGWYRQAPGKEREFVAAISWHGGSTYYADSVKGRFTISRDNAKNTVYLQMNSLKPEDTAVYYCAAERYDRVGFDYWGQGTQVTVSS,low polyreactivity
4,QVQLVESGGGLVQAGGSLRLSCAASGRTLAENAMGWYRQAPGKERELVAAISSIGGRTYYADSVKGRFTISRDNAKNTVYLQMNSLKPEDTAVYYCAATLRTKSARYNYWGQGTQVTVSS,high polyreactivity
5,QVQLVESGGGLVQAGGSLRLSCAASGRTLATYAMGWYRQAPGKERELVAAISTSGTRTYYADSVKGRFTISRDNAKNTVYLQMNSLKPEDTAVYYCNAGPGYDYWGHGTQVTVSS,high polyreactivity
6,QVQLVESGGGLVQAGGSLRLSCAASGRTLDVYAMGWSRQAPGKERELVASITSSGARTYYADSVKGRFTISRDNAKNTVYLQMNSLKPEDTAVYYCAARVYRYSASRAYDYWGQGSQVTVSS,high polyreactivity
7,QVQLVESGGGLVQAGGSLRLSCAASGRTLENYAMGWSRQAPGKERELVATINGRSGNTYYADSVKGRFTLSRDNAKNTVYLQMNSLKPEDTAVYYCNAYYEGYYTVGYDYWGQGTQVTVSS,high polyreactivity
8,QVQLVESGGGLVQAGGSLRLSCAASGRTLGFYAMGWYRQAPGKEREFVAAISSSVGRTYYADSVKGRFTISRDNAKNTVYLQMNSLKPEDTAVYYCAADRTDTSNYWGQGTQVTVSS,high polyreactivity
9,QVQLVESGGGLVQAGGSLRLSCAASGRTLGHNAMGWYRPAPGKERELVAAITSRGGTTYADSVKGRFTISRDNAKKTVYLQMNSLKPEETAVYYCAARVSGSRKYYYWGQGTQVTVSS,high polyreactivity
10,QVQLVESGGGLVQAGGSLRLSCAASGRTLGHNAMGWYRQAPGKERELVAAITSRGGTTYADSVKGRFTISRDNAKNTVYLQMNSLKPEDTAVYYCAARGYAYSRYYYWGQGTQVTVSS,high polyreactivity
11,QVQLVESGGGLVQAGGSLRLSCAASGRTLGKYVMGWYRQAPGKERELVAAISVRGGTTYYADSVKGRFTISRDNAKYTVYLQMNSLKPEDTAVYYGNKAYYVWYGWGQGTQVTVSS,high polyreactivity
12,QVQLVESGGGLVQAGGSLRLSCAASGRTLGSNTMGWYRQAPGKERELVASISLSGGSTSYADSVKGRFTISRDNAKNTVYLQMNSLKPEDTAVYYCNAKYHRRLQWGTRYYYWGQGTQVTVSS,high polyreactivity
13,QVQLVESGGGLVQAGGSLRLSCAASGRTLGTNAMGWYRQAPGKERELVASISKRGGSTYYADSVKGRFTISRDNAKNTVYLQMNSLKPEDTAVYYCAALFLSHIYYYWGQGTQVTVSS,high polyreactivity
14,QVQLVESGGGLVQAGGSLRLSCAASGRTLGVYTMGWYRQAPGKERELVATISWDGGITYYADSVKGRFTISRDNAKNTVYLQMNSLKPEDTAVYYCAAVDHSYGWMDYWGQGTQVTVSS,low polyreactivity
15,QVQLVESGGGLVQAGGSLRLSCAASGRTLHDYTMGWYRQEPGKERELVAGITSGGRTNYADSVKGRFTISRYNAKNTVYLQMNSLKPEDTAVYYCAAAWTWWRLYADDYWGQGTQVTVSS,high polyreactivity
16,QVQLVESGGGLVQAGGSLRLSCAASGRTLISYAMGWYRQAPGKERELVAAISWGGSSTYYADSVKGRFTISGDNAKNTVYLQMNSLKPEDTAVYYCAAVSYRGRGLSRYVAYGYKYDYWGQGTQVTVSS,high polyreactivity
17,QVQLVESGGGLVQAGGSLRLSCAASGRTLKKNSMGWYRQAPGKERELVAAISTGGRTYYADSVKGRFTISRDNAKNTVYLQINSLKPEDTAVYYCNFQFLSWSTIWGNDYWGQGTQVNVSS,high polyreactivity
18,QVQLVESGGGLVQAGGSLRLSCAASGRTLKYNAMGWYRQAPGKERELVAAISWSGTRTYYADSVKGRFTISRDNAKNTVYLQMNSLKPEDTAVYYCALYGGLGDRFRPRYYWGQGTQVTVSS,high polyreactivity
19,QVQLVESGGGLVQAGGSLRLSCAASGRTLLANAMGWYRQAPGKARELVAAITWTGGRTNYADSVKGRFTISRDNAKNTVYLQMNSLKPEDTAVYYCAADIFYEQVVGGTDVGYHDFDYWGQGTQVTVSS,low polyreactivity
20,QVQLVESGGGLVQAGGSLRLSCAASGRTLNVYAMGWYRQAPGKDREFVAAITVSGGNTYADSVKGRFTISRDNAKNTVYLQMNSLKPEDTAVYYCAVDRFSYSRRYDYWGQGTQVTVSS,high polyreactivity
21,QVQLVESGGGLVQAGGSLRLSCAASGRTLNYYAMVCYRQAPGKERELVASIDWDTGITDYADSVKGRFTISRDNAKNTVYLQMNSLKPEDSAVYYCAAVRVTKKYSYAYWGQGTQVTVSS,low polyreactivity

# Source: the nanobody polyreactivity screen of Harvey et al. (2022)
